Laboratory results reported in US20180162947A1 (UCB, published 2018).
Numbering of substitutions follows the chain as printed. Names may count otherwise.

B1: 969gH1gL1 (antibody, human IgG4 S228P, kappa, name in Kabat numbering, V domains shown)
VH: EVTLKESGPALVKPTQTLTLTCTFSGFSLTTYGMGVGWIRQPPGKALEWLANIWWDDDKYYNPSLKNRLTISKDTSKNQAVLTMTNMDPVDTATYYCARIGPIKYPTAPYRYFDFWGQGTMVTVSS
VL: DIQMTQSPSSLSASVGDRVTITCLASEDIYDNLAWYQKKPGKAPKLLIYYASSLQDGVPSRFSGSGSGTDYTLTISSLQPEDFATYFCLQDSEYPWTFGGGTKVEIKR
notes: Humanised IgG4 (S241P)/kappa; positions are Kabat; also called Ab969.g1
B2: 969gH2gL1 (antibody, human IgG4 S228P, kappa, name in Kabat numbering, V domains shown)
VH: B1 VH with A80V
VL: B1 VL
notes: Humanised IgG4 (S241P)/kappa; positions are Kabat; also called Ab969.g6
B3: 969gH2gL4 (antibody, human IgG4 S228P, kappa, name in Kabat numbering, V domains shown)
VH: B1 VH with A80V
VL: B1 VL with F87Y
notes: Humanised IgG4 (S241P)/kappa; positions are Kabat; also called Ab969.g7
B4: 969gH2gL8 (antibody, human IgG4 S228P, kappa, name in Kabat numbering, V domains shown)
VH: B1 VH with A80V
VL: B1 VL with K38Q, Y71F, F87Y
notes: Humanised IgG4 (S241P)/kappa, no donor residues; position is Kabat; also called Ab969.g4
B5: 969gH1gL2 (antibody, human IgG4 S228P, kappa, name in Kabat numbering, V domains shown)
VH: B1 VH
VL: B1 VL with K38Q
notes: Humanised IgG4 (S241P)/kappa; positions are Kabat
B6: 969gH1gL3 (antibody, human IgG4 S228P, kappa, name in Kabat numbering, V domains shown)
VH: B1 VH
VL: B1 VL with Y71F
notes: as for B5
B7: 969gH1gL4 (antibody, human IgG4 S228P, kappa, name in Kabat numbering, V domains shown)
VH: B1 VH
VL: B1 VL with F87Y
notes: as for B5
B8: 969gH1gL5 (antibody, human IgG4 S228P, kappa, name in Kabat numbering, V domains shown)
VH: B1 VH
VL: B1 VL with K38Q, Y71F
notes: as for B5
B9: 969gH1gL6 (antibody, human IgG4 S228P, kappa, name in Kabat numbering, V domains shown)
VH: B1 VH
VL: B1 VL with Y71F, F87Y
notes: as for B5
B10: 969gH1gL7 (antibody, human IgG4 S228P, kappa, name in Kabat numbering, V domains shown)
VH: B1 VH
VL: B1 VL with K38Q, F87Y
notes: Humanised IgG4 (S241P)/kappa; position is Kabat
B11: 969gH1gL8 (antibody, human IgG4 S228P, kappa, name in Kabat numbering, V domains shown)
VH: B1 VH
VL: B1 VL with K38Q, Y71F, F87Y
notes: as for B5
B12: 969gH2gL2 (antibody, human IgG4 S228P, kappa, name in Kabat numbering, V domains shown)
VH: B1 VH with A80V
VL: B1 VL with K38Q
notes: as for B5
B13: 969gH2gL3 (antibody, human IgG4 S228P, kappa, name in Kabat numbering, V domains shown)
VH: B1 VH with A80V
VL: B1 VL with Y71F
notes: as for B5
B14: 969gH2gL5 (antibody, human IgG4 S228P, kappa, name in Kabat numbering, V domains shown)
VH: B1 VH with A80V
VL: B1 VL with K38Q, Y71F
notes: as for B5
B15: 969gH2gL6 (antibody, human IgG4 S228P, kappa, name in Kabat numbering, V domains shown)
VH: B1 VH with A80V
VL: B1 VL with Y71F, F87Y
notes: Humanised IgG4 (S241P)/kappa; positions are Kabat; also called Ab969.g9
B16: 969gH2gL7 SG (antibody, human IgG4 S228P, kappa, V domains shown)
VH: B1 VH with A80V
VL: B1 VL with K38Q, D56S, F87Y
notes: Humanised IgG4 (S241P)/kappa; also called 969H2gL7(SG)

target: T1, recombinant human CSF-1R (form not stated) (human, UniProt P07333 20-512, limits assumed); assay: BIAcore, experiment 2 of 3
T1 construct: for the ELISA no species is stated; also called recombinant CSF-1R; recombinant CSF-1R protein
Experimental: (§1) The assay format was capture of the anti-CSF-1R antibodies by immobilised anti-human IgG,F(ab′)₂, then a titration of hCSF-1R/Fc over the captured surface. BIA (Biomolecular Interaction Analysis) was performed using a BIAcore 3000 (GE Healthcare Bio-Sciences AB). All experiments were performed at 25° C. An AffiniPure F(ab′)₂ fragment goat anti-human IgG, F(ab′)₂ fragment specific (Jackson ImmunoResearch), was immobilised on a CM5 Sensor Chip (GE Healthcare Bio-Sciences AB) via amine coupling chemistry to a level of ˜5000 response units (RU). HBS-EP buffer (10 mM HEPES, pH 7.4, 0.15M NaCl, 3 mM EDTA, 0.005% Surfactant P20, GE Healthcare Bio-Sciences AB) was used as the running buffer with a flow rate of 10 μl/min.

T1 sequence (P07333 20-512 limits assumed): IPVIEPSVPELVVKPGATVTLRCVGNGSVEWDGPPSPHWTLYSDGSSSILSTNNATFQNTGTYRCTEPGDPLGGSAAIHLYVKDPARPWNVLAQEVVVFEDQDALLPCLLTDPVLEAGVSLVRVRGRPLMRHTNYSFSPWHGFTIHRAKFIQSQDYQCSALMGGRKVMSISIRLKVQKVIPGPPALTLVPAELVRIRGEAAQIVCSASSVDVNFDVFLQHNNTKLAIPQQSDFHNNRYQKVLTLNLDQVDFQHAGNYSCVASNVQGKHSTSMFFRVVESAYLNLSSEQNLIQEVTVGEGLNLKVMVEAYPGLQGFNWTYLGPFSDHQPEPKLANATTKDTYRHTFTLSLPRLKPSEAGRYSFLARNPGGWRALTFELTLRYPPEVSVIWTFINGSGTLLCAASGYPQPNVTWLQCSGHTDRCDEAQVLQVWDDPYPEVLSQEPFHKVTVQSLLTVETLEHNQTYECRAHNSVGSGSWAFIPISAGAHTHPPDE

| Binder | Kd [pM] | koff [s⁻¹] | kon [M⁻¹ s⁻¹] |
| --- | --- | --- | --- |
| B1 | 2.4 | 6.04e-06 | 2.57e+06 |
| B2 | 3.7 | 8.95e-06 | 2.44e+06 |
| B3 | 3.6 | 9.41e-06 | 2.6e+06 |
| B4 | 3.4 | 6.65e-06 | 1.94e+06 |

target: T1, recombinant human CSF-1R (form not …); assay: BIAcore, humanisation stage, crude cell supernatant

| Binder | Kd [pM] | koff [s⁻¹] | kon [M⁻¹ s⁻¹] |
| --- | --- | --- | --- |
| B1 | ≤ 2.4 | ≤ 5e-06 | 2.04e+06 |
| B5 | 3.4 | 5e-06 | 1.46e+06 |
| B6 | 2.8 | 5e-06 | 1.8e+06 |
| B7 | 2.1 | 5e-06 | 2.39e+06 |
| B8 | 6.6 | 6.11e-06 | 926000 |
| B9 | 4.4 | 5e-06 | 1.15e+06 |
| B10 | 3.3 | 5e-06 | 1.5e+06 |
| B11 | 4.3 | 5e-06 | 1.17e+06 |
| B2 | 2.3 | 5.23e-06 | 2.27e+06 |
| B12 | 3.4 | 6.11e-06 | 1.78e+06 |
| B13 | 3.4 | 7.29e-06 | 2.12e+06 |
| B3 | 4.4 | 9.64e-06 | 2.2e+06 |
| B14 | 6.5 | 5e-06 | 768000 |
| B15 | 4.4 | 6.23e-06 | 1.4e+06 |
| B4 | 4.1 | 5e-06 | 1.23e+06 |

target: T1, recombinant human CSF-1R (form not …); assay: BIAcore, experiment 1 of 3
Experimental: as §1

| Binder | Kd [pM] | koff [s⁻¹] | kon [M⁻¹ s⁻¹] |
| --- | --- | --- | --- |
| B1 | 3.2 | 8.47e-06 | 2.65e+06 |
| B2 | 3.6 | 8.84e-06 | 2.43e+06 |
| B3 | 3 | 7.73e-06 | 2.57e+06 |
| B4 | 2.5 | 5e-06 | 1.99e+06 |

target: T1, recombinant human CSF-1R (form not …); assay: BIAcore, mean of 3 (fourth row, unlabelled)
Experimental: as §1

| Binder | Kd [pM] | koff [s⁻¹] | kon [M⁻¹ s⁻¹] |
| --- | --- | --- | --- |
| B1 | 3.2 | 8.13e-06 | 2.58e+06 |
| B2 | 3.3 | 8.14e-06 | 2.47e+06 |
| B3 | 3.7 | 9.55e-06 | 2.56e+06 |
| B4 | 2.8 | 5.55e-06 | 1.97e+06 |

target: T1, recombinant human CSF-1R (form not …); assay: BIAcore, DG/SG comparison, crude cell supernatant

| Binder | Kd [pM] | koff [s⁻¹] | kon [M⁻¹ s⁻¹] |
| --- | --- | --- | --- |
| B16 | 2 | 5e-06 | 2.54e+06 |
| B4 | 2.3 | 5e-06 | 2.18e+06 |

target: T1, recombinant human CSF-1R (form not …); assay: BIAcore, experiment 3 of 3
Experimental: as §1

| Binder | Kd [pM] | koff [s⁻¹] | kon [M⁻¹ s⁻¹] |
| --- | --- | --- | --- |
| B1 | 3.9 | 9.88e-06 | 2.51e+06 |
| B2 | 2.6 | 6.63e-06 | 2.54e+06 |
| B3 | 4.6 | 1.15e-05 | 2.52e+06 |
| B4 | 2.5 | 5e-06 | 1.97e+06 |

target: human CSF-1R on cells (THP-1 cells, transfected HEK293F cells, primary human monocytes) (human, UniProt P07333 20-972); assay: cell-based or functional assay
Sequence (P07333 20-972): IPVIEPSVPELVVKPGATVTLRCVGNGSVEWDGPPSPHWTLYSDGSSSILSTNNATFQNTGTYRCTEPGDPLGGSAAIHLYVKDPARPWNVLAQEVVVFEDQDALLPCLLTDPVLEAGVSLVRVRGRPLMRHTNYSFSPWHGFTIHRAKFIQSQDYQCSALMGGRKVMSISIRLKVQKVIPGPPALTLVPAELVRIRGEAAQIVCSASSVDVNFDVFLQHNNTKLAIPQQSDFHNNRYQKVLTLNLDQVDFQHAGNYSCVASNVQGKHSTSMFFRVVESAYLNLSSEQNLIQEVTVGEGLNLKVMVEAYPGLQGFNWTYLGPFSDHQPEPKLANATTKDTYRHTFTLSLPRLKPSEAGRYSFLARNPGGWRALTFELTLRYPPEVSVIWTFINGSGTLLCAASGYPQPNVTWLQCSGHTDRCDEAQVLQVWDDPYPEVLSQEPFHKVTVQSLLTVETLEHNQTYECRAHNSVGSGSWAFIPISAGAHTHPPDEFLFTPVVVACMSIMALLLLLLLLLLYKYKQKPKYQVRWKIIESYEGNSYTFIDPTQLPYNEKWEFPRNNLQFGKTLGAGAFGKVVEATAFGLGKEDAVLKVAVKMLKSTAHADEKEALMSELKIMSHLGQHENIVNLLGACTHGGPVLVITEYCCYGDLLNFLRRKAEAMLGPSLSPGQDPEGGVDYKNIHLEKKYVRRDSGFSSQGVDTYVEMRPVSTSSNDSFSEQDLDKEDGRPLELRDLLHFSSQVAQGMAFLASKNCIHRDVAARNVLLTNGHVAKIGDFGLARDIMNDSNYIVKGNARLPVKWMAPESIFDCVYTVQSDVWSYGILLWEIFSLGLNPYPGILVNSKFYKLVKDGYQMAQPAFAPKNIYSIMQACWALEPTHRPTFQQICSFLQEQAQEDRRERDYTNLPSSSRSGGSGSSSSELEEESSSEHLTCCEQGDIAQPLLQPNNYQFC

| Binder | IC50, MCP-1 inhibition assay, Donor 1 [µg/mL] | IC50, MCP-1 inhibition assay, Donor 2 [µg/mL] | IC50 ratio against chimeric 969.g0 (number in parentheses), Donor 1 [ratio] | IC50 ratio against chimeric 969.g0 (number in parentheses), Donor 2 [ratio] | Mean chimeric/graft IC50 ratio [ratio] |
| --- | --- | --- | --- | --- | --- |
| B3 | 0.0463 | 0.0061 | 1.5 | 1.1 | 1.3 |
